# Data as given in the supplement of paper PMC7125110.
# ± gives the standard error. Variants at the floor of the assay were thinned out.
# B1: glmS ribozyme (parent)
# chain: AUAAAAGCGCCAGAACUACAGAAAUGUAGUUGACGAGGAGGAGGUUUAUCGAAUUUUCGGCGGAUGCCUCCAAA
# Variants of: B1
# Experiment: self-cleavage kobs at 10000 uM GlcN6P; higher = faster cleavage; RNA array
# Conditions: with glucosamine-6-phosphate
# Outline: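 Sequenced MiSeq chips were the platform: E. coli RNA polymerase transcribed barcoded ribozyme variants on them in situ, and a hybridised Cy3 probe tracked these at 37 °C. After glucosamine-6-phosphate (40 μM to 10 mM) in HEPES/KCl/Mg(OAc)2 buffer was flowed in, tiles were imaged over ~14 h. Signals normalised to baseline and to non-cleaving reference variants were reduced to per-tile medians and fit to one- or two-exponential decays to obtain kobs. kcat and KM were derived through weighted Michaelis–Menten fits across concentrations.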
row,Variant,self-cleavage kobs at 10000 uM GlcN6P [s⁻¹]
1,AUAAAAGCGCCAGAACUACAGAAAUGUAGUUCACGAUGAGGAGCUUUAUCGCAUUUUCGGCGGAUGCCUCCAAA [G32C G37U G44C A52C],< 1e-05
2,AUAAAAGCGCCAGAACUACAGAAAUGUAGUUUACGAGGAGGAGGUUUAUCGAAUUAUAGGCGGAUGCAUCCAAA [G32U U56A C58A C68A],0.000114 ± 2.2e-05
3,AUAAAAGCGCCAGAACUACAGAAAUGUACUUGACGAGGAGGAGGUGUAUCGAAUUUUCGGCGGAUGUCUCCAAA [G29C U46G C67U],0.000125 ± 3.3e-05
4,AUAAAAGCGCCAGAACUACAGAAAUGUAUUUGACGAGGAGGAGGUUUAUCGAAAUUUCGGCGGAUGCUUCCAAA [G29U U54A C68U],0.000427 ± 0.00018
5,AUAAAAGCGCCAGAACUACAGAAAUGUAGUUUACGAGGAGGAGGUUUAUCGAACUUUCGGCGGAUGCCUACAAA [G32U U54C C70A],4.27e-05 ± 1.5e-05
6,AUAAAAGCGCCAGAACUACAGAAAUGUACUUGACGAGGAGGAGGAUUAUCGAAUUUUCGGCGGAUGCUUCCAAA [G29C U45A C68U],0.000376 ± 0.00011
7,AUAAAAGCGCCAGAACUACAGAAAUGUAGUUAACGAGGAGGAGGUUUAUCGAAUAUUCGGCGGAUGGCUCCAAA [G32A U55A C67G],8.33e-05 ± 2.7e-05
8,AUAAAAGCGCCAGAACUACAGAAAUGUAGUAGACGAGGAGGAGGUUUAACGAAUUUUCGGCGGACGGCUCCAAA [U31A U49A U65C C67G],< 1e-05
9,AUAAAAGCGCCAGAACUACAGAAAUGUACUUGACGGGGAGGAGGUUUAUCGAAUUUUCGCCGGAUGCCGCCAAA [G29C A36G G60C U69G],< 1e-05
10,AUAAAAGCGCCAGAACUACAGAAAUGUAAUUUACGAGGAGGAGGUUUAUAGAAUUUUCGGCGGAUGCGUCCAAA [G29A G32U C50A C68G],0.000193 ± 6e-05
11,AUAAAAGCGCCAGAACUACAGAAAUGUAGAUGACGAGGCGGAGGUUUAUCGAAUUUUCGGCGGAUGCCUCCAAA [U30A A39C],0.00136 ± 0.00028
12,AUAAAAGCGCCAGAACUACAGAAAUGUACUUGACGAGGAGGAGGUUUAUCGAAUUUUCGGCGGAUGCCCCUAAA [G29C U69C C71U],4.54e-05 ± 2.1e-05
13,AUAAAAGCGCCAGAACUACAGAAAUGUAGUUGCCGAGGAGGAGGUUUAUCGCAUUUGCGGCGAAUGCCUCCAAA [A33C A52C U57G G63A],< 1e-05
14,AUAAAAGCGCCAGAACUACAGAAAUGUACUUGACGAGGAGGAGGUUUAUGGAAUUUUCGGGGGAUGCCUCUAAA [G29C C50G C61G C71U],8.93e-05 ± 2.1e-05
15,AUAAAAGCGCCAGAACUACAGAAAUGUAGGUGACGAGGAGGAGGUUUAUCUAAUCUUCGGAGGAUGCCUCCAAA [U30G G51U U55C C61A],< 1e-05
16,AUAAAAGCGCCAGAACUACAGAAAUGUAAUUGACGAGGAGGAGGUUUAUCGAAUUGUCGGCGGAUGACUCCAAA [G29A U56G C67A],0.000277 ± 5.7e-05
17,AUAAAAGCGCCAGAACUACAGAAAUGUAGUGGACGAGGAGGAGGUUUAUCGAAUGUUUGGCGGAUGCCUCCAAA [U31G U55G C58U],7.92e-05 ± 1.7e-05
18,AUAAAAGCGCCAGAACUACAGAAAUGUAGUUUACGAGGAGGAGGUUUAGCGAAUUUUCGGCGGGUGCCUCCAAA [G32U U49G A64G],0.000122 ± 2.8e-05
19,AUAAAAGCGCCAGAACUACAGAAAUGUAUUUGACGAGGAGGAGGUUUAUCGAAUCUACGGCGGAUGCCUCCAAA [G29U U55C U57A],4.36e-05 ± 1.5e-05

row,Variant,self-cleavage kobs at 10000 uM GlcN6P [s⁻¹]
1,AUAAAAGCGCCAGAACUACAGAAAUGUAGUUAACGAGGAGGAGGGUUAGCGAAUUUUCGGCGGAUGCCUCGAAA [G32A U45G U49G C71G],< 1e-05
2,AUAAAAGCGCCAGAACUACAGAAAUGUAGAUGACGAGGAGGAGGUUGAUCGAGUUUUCGGCGGAUGCCUCCAAA [U30A U47G A53G],0.000616 ± 0.0001
3,AUAAAAGCGCCAGAACUACAGAAAUGUAGAUGACGAGGAGGAGGCUUAUCGAAUUUUCGGCGGAUGCCUCCAAA [U30A U45C],0.000307 ± 8.9e-05
4,AUAAAAGCGCCAGAACUACAGAAAUGUAAUUGACGAGGACGAGAUUUAUCGAAUUUUCGGCGGAUGCCUCCAAA [G29A G40C G44A],< 1e-05
5,AUAAAAGCGCCAGAACUACAGAAAUGUAGUGGACGAGGAGGAGGUUCAUCGAAUUUUCGGUGGAUGCCUCUAAA [U31G U47C C61U C71U],< 1e-05
6,AUAAAAGCGCCAGAACUACAGAAAUGUAUUUGACGAGGAGGAGGUUUAUCGACUUUUCGGCGGAUACCUCCAAA [G29U A53C G66A],0.000258 ± 4.6e-05
7,AUAAAAGCGCCAGAACUACAGAAAUGUAGUUGCCGAGGAGGAGGUUUAUCGAAUUUUCGGCGGAUGCGUCCAAA [A33C C68G],< 1e-05
8,AUAAAAGCGCCAGAACUACAGAAAUGUAGUUGCCGAGGAGGAGAUUUUUCGAAUUUUCGGCGGAUGCCUCCAAA [A33C G44A A48U],< 1e-05
9,AUAAAAGCGCCAGAACUACAGAAAUGUAGUAGACGAGGAGGAGGUUUAUCGAAUUUUCGGGGGAUGCCUCUAAA [U31A C61G C71U],< 1e-05
10,AUAAAAGCGCCAGAACUACAGAAAUGUAGCUGACGAGGAGGAGGUUUAUCGAGUUUUCGGCGGAUACCUCCAAA [U30C A53G G66A],8.63e-05 ± 2.1e-05
11,AUAAAAGCGCCAGAACUACAGAAAUGUAGUUCACGAGGAGGAGGUUUAUCGAAAUUUCGGCGGAUGCGUCCAAA [G32C U54A C68G],6.46e-05 ± 2e-05
12,AUAAAAGCGCCAGAACUACAGAAAUGUAGUUCACGCGGAGGAGGUUUAUCGAAUUUUCGGCGGAUGUCUCCAAA [G32C A36C C67U],< 1e-05
13,AUAAAAGCGCCAGAACUACAGAAAUGUAGUUGCCGAGGAGGAGGCUUAUCGAAUUUUCGGCGGACGCCUCCAAA [A33C U45C U65C],< 1e-05
14,AUAAAAGCGCCAGAACUACAGAAAUGUAGGUGCCGAGGAGGAGGUUUCUCGAAUUUUCGGCGGAUGCCUCUAAA [U30G A33C A48C C71U],< 1e-05
15,AUAAAAGCGCCAGAACUACAGAAAUGUAGUUUACGAGGAGGAGGUAUAUCGAAUUGUCGGCGGAUGCCUCCAAA [G32U U46A U56G],3.85e-05 ± 1.2e-05
16,AUAAAAGCGCCAGAACUACAGAAAUGUAGUUGCCGAGGAGGAUGUUUACCGAAUUUUCGGCGGAUGCUUCCAAA [A33C G43U U49C C68U],< 1e-05
17,AUAAAAGCGCCAGAACUACAGAAAUGUAGUCGACGAGGCUGAGGUUUAUCGAAUUUUCGUCGGAUGCCUCCAAA [U31C A39C G40U G60U],< 1e-05
18,AUAAAAGCGCCAGAACUACAGAAAUGUAGUUGCCGAGGAGGAGGGUUAUCGAAUUUUCGGCGGAUGCCUCCAAA [A33C U45G],4.71e-05 ± 1e-05
